Measured values published in the supplement of paper PMC6757056.
± gives the standard deviation of the averaged measurements.

B1: library; a variant is named by its letters at N, in order (parent)
chain: GCUGUCACCGGUGCUUGGUACGUUAUAUUCAGCCGGUCUGAUGAGUCUNNNNNNAGACGAAACAGC

Experiments:
(6R,S)-folinic acid [1] = variants of: B1; assay: FACS-Seq fitted mean relative fluorescence mCherry/BFP without ligand (log10 relative fluorescence); HEK293T overexpressing SLC46A1; higher = higher reporter protein expression; conditions: without (6R,S)-folinic acid; ligand present: no
Method in brief: (§1)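 The ribozyme switch sat in an mCherry reporter, delivered by lentivirus into HEK293T libraries along with an EF1α-BFP marker. Enriched cells were incubated 48 h with or without ligand, sorted into 6 bins by mCherry/BFP, and bin genomic DNA was PCR-amplified, barcoded and MiSeq-sequenced. Fluorescence equals the fitted normal mean of the bin counts after normalization. Those log10(mCherry/BFP) means were scaled to five spiked-in control ribozymes.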

(6R,S)-folinic acid [2] = variants of: B1; assay: normalized RNA/DNA level without ligand (relative to sTRSVctl = 100) (log10 (% of sTRSVctl)); HEK293T overexpressing SLC46A1; higher = less ribozyme self-cleavage, higher mRNA level; conditions: without (6R,S)-folinic acid; ligand present: no
Method: (§2)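 Hammerhead (sTRSV) ribozyme switch libraries with a ligand aptamer grafted on stem I and a randomized N4-6 loop II, cloned into the 3' UTR of mCherry and transiently transfected into HEK293T cells; RNA-Seq 72 h post transfection with ligand added 1 h before transfection; RNA read count / plasmid DNA read count normalized to the non-cleaving sTRSVctl (x100), log10; sequences with >100 DNA reads. FACS-Seq: lentiviral library sorted into 6 bins after 48 h ligand, log-normal fit mean of mCherry/BFP scaled to controls. Printed sequences are partial switch sequences.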

(6R,S)-folinic acid [3] = variants of: B1; assay: FACS-Seq fitted mean relative fluorescence mCherry/BFP with ligand (log10 relative fluorescence); HEK293T overexpressing SLC46A1; ligand concentration (+) FACS-Seq: 6 mM; higher = higher reporter protein expression; conditions: with (6R,S)-folinic acid; ligand present: yes
Method in brief: as §1

(6R,S)-folinic acid [4] = variants of: B1; assay: normalized RNA/DNA level with ligand (relative to sTRSVctl = 100) (log10 (% of sTRSVctl)); HEK293T overexpressing SLC46A1; ligand concentration (+) RNA-Seq: 6 mM; higher = less ribozyme self-cleavage, higher mRNA level; conditions: with (6R,S)-folinic acid; ligand present: yes
Method: as §2

Variant | FACS-Seq fitted mean (log10) ((6R,S)-folinic acid [1]) | normalized RNA/DNA level without ligand (log10) ((6R,S)-folinic acid [2]) | FACS-Seq fitted mean (log10) ((6R,S)-folinic acid [3]) | normalized RNA/DNA level with ligand (log10) ((6R,S)-folinic acid [4])
UAUGCU | -0.0167 ± 0.051 | 2.007 ± 0.0048 | 0.129 ± 0.27 | 2.04 ± 0.029
UAUGCG | 0.276 ± 0.043 | 1.7391 ± 0.00075 | 0.61 ± 0.063 | 1.961 ± 0.014
GCAAGG | 0.437 ± 0.041 | 1.957 ± 0.007 | 0.376 ± 0.13 | 2.04 ± 0.049
GCAAGA | 0.477 ± 0.0057 | 2.022 ± 0.0049 | 0.457 ± 0.12 | 2.04 ± 0.024
GAUUCU | 0.0461 ± 0.007 | 2.015 ± 0.0091 | -0.0821 ± 0.066 | 2.04 ± 0.042
GAUUCA | 0.437 ± 0.14 | 1.985 ± 0.0095 | 0.333 ± 0.013 | 2.01 ± 0.025
UAUUGA | 0.265 ± 0.09 | 1.91 ± 0.025 | 0.57 ± 0.12 | 1.985 ± 0.003
UAUUGG | -0.0117 ± 0.013 | 1.59 ± 0.037 | 0.338 ± 0.024 | 1.91 ± 0.034
AAUUGA | 0.309 ± 0.021 | 1.966 ± 0.0098 | 0.358 ± 0.11 | 2 ± 0.0091
AAUUGG | 0.112 ± 0.046 | 1.93 ± 0.024 | 0.122 ± 0.064 | 2 ± 0.022
AAUUGU | 0.0241 ± 0.064 | 1.949 ± 0.019 | 0.334 ± 0.097 | 1.98 ± 0.032
GAUUGU | 0.143 ± 0.011 | 1.995 ± 0.0038 | 0.365 ± 0.11 | 2.024 ± 0.0059
GAUUGA | 0.422 ± 0.12 | 1.999 ± 0.019 | 0.519 ± 0.3 | 2.02 ± 0.048
CCAAGU | 0.0806 ± 0.0022 | 2.038 ± 0.0087 | 0.036 ± 0.024 | 2.04 ± 0.047
AAUGGU | 0.406 ± 0.13 | 1.9355 ± 0.00018 | 0.51 ± 0.099 | 2 ± 0.055
AAUGGG | 0.225 ± 0.07 | 1.8 ± 0.022 | 0.233 ± 0.18 | 2 ± 0.021
UCAAGC | 0.599 ± 0.019 | 2.071 ± 0.0039 | 0.553 ± 0.17 | 2.05 ± 0.04
UCAAGA | 0.185 ± 0.046 | 1.9951 ± 0.0012 | 0.305 ± 0.13 | 2.028 ± 0.014
